Test results published in patent US20110318349A1 (AbbVie / Abbott, published 2011).

Columns and labels:
huTWEAK = molecular target: T1, huTWEAK (human, UniProt O43508 93-249, limits assumed); assay: cell-based or functional assay
T1 sequence (looked up): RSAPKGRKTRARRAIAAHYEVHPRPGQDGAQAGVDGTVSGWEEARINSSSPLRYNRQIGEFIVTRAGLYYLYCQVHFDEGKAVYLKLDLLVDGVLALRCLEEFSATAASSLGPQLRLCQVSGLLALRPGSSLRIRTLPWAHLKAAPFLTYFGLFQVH

[1] = molecular target: T2, FLAG tagged TWEAK (Recombinant Human TWEAK) (human, UniProt O43508 106-249, limits assumed); assay: SPR (Biacore), FLAG tagged TWEAK captured on mouse anti-FLAG chip, antibody in solution
T2 construct: Captured on a mouse anti-FLAG biosensor chip in the Biacore assay of the anti-TWEAK antibodies and DVD-Igs; also called TWEAK/TNSF12; not shown: FLAG tag
T2 sequence (looked up): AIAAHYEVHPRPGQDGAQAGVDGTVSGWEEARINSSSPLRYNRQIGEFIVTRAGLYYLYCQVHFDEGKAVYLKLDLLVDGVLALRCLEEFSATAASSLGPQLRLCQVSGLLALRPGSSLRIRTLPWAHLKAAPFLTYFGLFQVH
Description: (§1) Binding of antibodies or DVD-Ig to a target antigen (for example, a purified recombinant target antigen) was determined by surface plasmon resonance-based measurements with a Biacore® T-100, T-200, or 3000 instrument (GE, New Jersey) using running HBS-EP (10 mM HEPES [pH 7.4], 150 mM NaCl, 3 mM EDTA, and 0.005% surfactant P20) at 25° C. All chemicals were obtained from GE (New Jersey) or otherwise from a different source as described in the text. For example, approximately 5000 RU of goat anti-human IgG, (Fcγ), fragment specific polyclonal antibody (Pierce Biotechnology Inc, Rockford, Ill.) diluted in 10 mM sodium acetate (pH 4.5) was directly immobilized across a CM5 research grade biosensor chip using a standard amine coupling kit according to manufacturer's instructions and procedures at 25 Unreacted moieties on the biosensor surface were blocked with ethanolamine Modified carboxymethyl dextran surface in flowcell 2,3, and 4 was used as a reaction surface. Modified carboxymethyl dextran surface with goat anti-human IgG in flow cell 1 was used as the reference surface. For kinetic analysis, rate equations derived from the 1:1 Langmuir binding model were fitted simultaneously to association and dissociation phases of all eight injections (using global fit analysis) with the use of Biaevaluation 4.0.1 software. Purified antibodies or DVD-Ig were diluted in HEPES-buffered saline for capture across goat anti-human IgG specific reaction surfaces. Antibodies or DVD-Ig to be captured as a ligand (1 μg/ml) were injected over reaction matrices at a flow rate of 50 μl/min. The association and dissociation rate constants, kₒₙ (M⁻¹s⁻¹) and koff (s⁻¹) were determined under a continuous flow rate of 500 min. Rate constants were derived by making kinetic binding measurements at different antigen concentrations ranging from 2-200 nM. Anti-TWEAK antibodies and DVD-Igs were evaluated by binding of the antibodies/DVD-Igs to the captured FLAG tagged TWEAK on a mouse anti FLAG biosensor chip. The concentrations of the DVD-Igs/Antibodies tested were between 100-0.01 nM.
(§2) The equilibrium dissociation constant (M) of the reaction between antibodies or DVD-Igs and the target antigen was then calculated from the kinetic rate constants by the following formula: KD=koff/kₒₙ. Binding was recorded as a function of time and kinetic rate constants are calculated.

muTNFα = molecular target: T3, muTNFα (mouse, UniProt P06804 80-235); assay: cell-based or functional assay
T3 sequence (looked up): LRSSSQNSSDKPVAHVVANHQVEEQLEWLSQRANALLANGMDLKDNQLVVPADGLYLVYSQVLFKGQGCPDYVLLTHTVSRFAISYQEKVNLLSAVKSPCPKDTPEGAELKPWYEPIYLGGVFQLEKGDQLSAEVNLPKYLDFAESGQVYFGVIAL

[2] = molecular target: T4, Recombinant Human TNF-α/TNFSF1A (human, UniProt P01375 77-233); assay: SPR (Biacore), DVD-Ig captured on goat anti-human IgG Fc chip, antigen in solution; N-terminal TNF domain
T4 sequence (P01375 77-233 limits assumed): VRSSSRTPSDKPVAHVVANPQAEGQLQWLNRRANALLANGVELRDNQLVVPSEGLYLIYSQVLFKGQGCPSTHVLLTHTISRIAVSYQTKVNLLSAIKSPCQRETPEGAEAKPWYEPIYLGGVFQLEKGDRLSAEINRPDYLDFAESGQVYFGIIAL
Description: as §1, §2

[3] = molecular target: T2, FLAG tagged TWEAK (Recombinant Human …); assay: SPR (Biacore), FLAG tagged TWEAK captured on mouse anti-FLAG chip, DVD-Ig in solution; C-terminal TWEAK (seq. 2) domain
Description: as §1, with “Antibodies or DVD-Ig to be captured as a ligand (1 μg/ml) were injected over reaction matrices at a flow rate of 50 μl/min.” left out, “Rate constants were derived by making kinetic binding measurements at different antigen concentrations ranging from 2-200 nM.” left out, “The concentrations of the DVD-Igs/Antibodies tested were between 100-0.01 nM.” left out
as §2

[4] = molecular target: T4, Recombinant Human TNF-α/TNFSF1A; assay: SPR (Biacore), antibody captured on goat anti-human IgG Fc chip, antigen in solution
Description: as §1, with “Antibodies or DVD-Ig to be captured as a ligand (1 μg/ml) were injected over reaction matrices at a flow rate of 50 μl/min.” left out, “Rate constants were derived by making kinetic binding measurements at different antigen concentrations ranging from 2-200 nM.” left out, “The concentrations of the DVD-Igs/Antibodies tested were between 100-0.01 nM.” left out
as §2

[5] = molecular target: T4, Recombinant Human TNF-α/TNFSF1A; assay: SPR (Biacore), antibody captured on goat anti-human IgG Fc chip, antigen in solution (row printed a second time)
Description: Binding of antibodies or DVD-Ig to a target antigen (for example, a purified recombinant target antigen) was determined by surface plasmon resonance-based measurements with a Biacore® T-100, T-200, or 3000 instrument (GE, New Jersey) using running HBS-EP (10 mM HEPES [pH 7.4], 150 mM NaCl, 3 mM EDTA, and 0.005% surfactant P20) at 25° C. All chemicals were obtained from GE (New Jersey) or otherwise from a different source as described in the text. […] The association and dissociation rate constants, kₒₙ (M⁻¹s⁻¹) and koff (s⁻¹) were determined under a continuous flow rate of 500 min. […] Anti-TWEAK antibodies and DVD-Igs were evaluated by binding of the antibodies/DVD-Igs to the captured FLAG tagged TWEAK on a mouse anti FLAG biosensor chip. […]
as §2

B1: AB211 (antibody, human IgG1, kappa, V domains shown)
VH: EVQLVESGGGLVQPGGSLRLSCAASGFTFSRYAMSWVRQAPGKGLEWVAEISSGGSYPYYPDTVTGRFTISRDNAKNSLYLQMNSLRAEDTAVYYCARVLYYDYDGDRIEVMDYWGQGTLVTVSS
VL: DVVMTQSPLSLPVTPGEPASISCRSSQSLVSSKGNTYLHWYLQKPGQSPQFLIYKVSNRFSGVPDRFSGSGSGTDFTLKISRVEAEDVGVYFCSQSTHFPRTFGGGTKVEIKR
B1 was tested, and the “TWEAK Neutralization Assay EC50 nM (IL-8 in supernatant of A375 cells)” value (huTWEAK) was 0.396 nM, the Kd [1] was under 0.25 pM and the koff [1] was 2.5e-06 s⁻¹. It also gave a kon [1] of over 1e+07 M⁻¹ s⁻¹.

B2: AB212 (antibody, human IgG1, kappa, V domains shown)
VH: EVQLVESGGGLVRPGGSLKLFCAASGFTFSRYAMSWVRQSPEKRLEWVAEISSGGSYPYYPDTVTGRFTISRDNAKNTLYLEMSSLKSEDTAMYYCARVLYYDYDGDRIEVMDYWGQGTAVIVSS
VL: DVVMTQSPLSLSVSLGDQASISCRSSQSLVSSKGNTYLHWYLQKPGQSPKFLIYKVSNRFSGVPDRFSGSGSGTDFTLKISRVAAEDLGVYFCSQSTHFPRTFGGGTTLEIKR
B2 gave a Kd [1] of 1.8 pM, a koff [1] of 2.6e-05 s⁻¹ and a kon [1] of 1.1e+07 M⁻¹ s⁻¹.

B3: DVD1132 (bispecific antibody, human IgG1, kappa)
heavy: not shown
light: QIVLSQSPAILSASPGEKVTMTCRASSSVSYMHWFQQKPGSSPKPWIYATSNLASGVPARFSGSGSGTSYSLTISRVEAEDAATYYCQQWSSSPLTFGAGTKLELKRTVAAPDVVMTQSPLSLPVTPGEPASISCRSSQSLVSSKGNTYLHWYLQKPGQSPQFLIYKVSNRFSGVPDRFSGSGSGTDFTLKISRVEAEDVGVYFCSQSTHFPRTFGGGTKVEIKRTVAAPSVFIFPPSDEQLKSGTASVVCLLNNFYPREAKVQWKVDNALQSGNSQESVTEQDSKDSTYSLSSTLTLSKADYEKHKVYACEVTHQGLSSPVTKSFNRGEC
In the case of B3, the “N-terminal VD TNFα Neutralization Assay EC50 nM (L929 cell viability, WST-1)” value (muTNFα) is reported as 0.196 nM and the “C-terminal VD TWEAK Neutralization Assay EC50 nM (IL-8 in supernatant of A375 cells)” value (huTWEAK) is reported as 0.238 nM.

B4: DVD1135 (bispecific antibody, human IgG1, kappa)
heavy: not shown
light: QIVLSQSPAILSASPGEKVTMTCRASSSVSYMHWFQQKPGSSPKPWIYATSNLASGVPARFSGSGSGTSYSLTISRVEAEDAATYYCQQWSSSPLTFGAGTKLELKRTVAAPDVVMTQSPLSLSVSLGDQASISCRSSQSLVSSKGNTYLHWYLQKPGQSPKFLIYKVSNRFSGVPDRFSGSGSGTDFTLKISRVAAEDLGVYFCSQSTHFPRTFGGGTTLEIKRTVAAPSVFIFPPSDEQLKSGTASVVCLLNNFYPREAKVQWKVDNALQSGNSQESVTEQDSKDSTYSLSSTLTLSKADYEKHKVYACEVTHQGLSSPVTKSFNRGEC
For B4, the “N-terminal VD TNFα Neutralization Assay EC50 nM (L929 cell viability, WST-1)” value (muTNFα) was 1.95 nM and the “C-terminal VD TWEAK Neutralization Assay EC50 nM (IL-8 in supernatant of A375 cells)” value (huTWEAK) was 4.34 nM.

B5: DVD1127 (bispecific antibody, human IgG1, kappa)
heavy: not shown
light: QIVLSQSPAILSASPGEKVTMTCRASSSVSYMHWFQQKPGSSPKPWIYATSNLASGVPARFSGSGSGTSYSLTISRVEAEDAATYYCQQWSSSPLTFGAGTKLELKRTVAAPDVVMTQSPLSLPVTPGEPASISCRSSQSLVSSKGNTYLHWYLQKPGQSPQFLIYKVSNRFSGVPDRFSGSGSGTDFTLKISRVEAEDVGVYFCSQSTHFPRTFGGGTKVEIKRTVAAPSVFIFPPSDEQLKSGTASVVCLLNNFYPREAKVQWKVDNALQSGNSQESVTEQDSKDSTYSLSSTLTLSKADYEKHKVYACEVTHQGLSSPVTKSFNRGEC
notes: also called DVD1127H/DVD1127L
With B5 the “N-terminal VD TNFα Neutralization Assay EC50 nM (L929 cell viability, WST-1)” value (muTNFα) was 0.703 nM, the Kd [2] was 59 pM and the koff [2] was 0.00058 s⁻¹. The kon [2] was 9.9e+06 M⁻¹ s⁻¹.

B6: DVD1140 (bispecific antibody, human IgG1, kappa)
heavy: not shown
light: QIVLSQSPAILSASPGEKVTMTCRASSSVSYMHWFQQKPGSSPKPWIYATSNLASGVPARFSGSGSGTSYSLTISRVEAEDAATYYCQQWSSSPLTFGAGTKLELKRTVAAPDVVMTQSPLSLSVSLGDQASISCRSSQSLVSSKGNTYLHWYLQKPGQSPKFLIYKVSNRFSGVPDRFSGSGSGTDFTLKISRVAAEDLGVYFCSQSTHFPRTFGGGTTLEIKRTVAAPSVFIFPPSDEQLKSGTASVVCLLNNFYPREAKVQWKVDNALQSGNSQESVTEQDSKDSTYSLSSTLTLSKADYEKHKVYACEVTHQGLSSPVTKSFNRGEC
notes: also called DVD1140H/DVD1140L
With B6 the “N-terminal VD TNFα Neutralization Assay EC50 nM (L929 cell viability, WST-1)” value (muTNFα) was 1.06 nM, the “C-terminal VD TWEAK Neutralization Assay EC50 nM (IL-8 in supernatant of A375 cells)” value (huTWEAK) was 0.136 nM and the Kd [2] was 62 pM. The koff [2] was 0.00082 s⁻¹, the kon [2] was 1.3e+07 M⁻¹ s⁻¹ and the Kd [3] was under 8.3 pM. The koff [3] was under 1e-06 s⁻¹ and the kon [3] was 120000 M⁻¹ s⁻¹.

B7: DVD1131 (bispecific antibody, human IgG1, kappa)
heavy: not shown
light: QIVLSQSPAILSASPGEKVTMTCRASSSVSYMHWFQQKPGSSPKPWIYATSNLASGVPARFSGSGSGTSYSLTISRVEAEDAATYYCQQWSSSPLTFGAGTKLELKRTVAAPSVFIFPPDVVMTQSPLSLPVTPGEPASISCRSSQSLVSSKGNTYLHWYLQKPGQSPQFLIYKVSNRFSGVPDRFSGSGSGTDFTLKISRVEAEDVGVYFCSQSTHFPRTFGGGTKVEIKRTVAAPSVFIFPPSDEQLKSGTASVVCLLNNFYPREAKVQWKVDNALQSGNSQESVTEQDSKDSTYSLSSTLTLSKADYEKHKVYACEVTHQGLSSPVTKSFNRGEC
For B7, the “C-terminal VD TWEAK Neutralization Assay EC50 nM (IL-8 in supernatant of A375 cells)” value (huTWEAK) was 0.123 nM.

B8: AB210 (antibody, human IgG1, kappa, V domains shown)
VH: EFQLQQSGPELVKPGASVRISCKASGYSFTDYNMNWVKQSNGKSLEWVGVINPNYGSSTYNQKFKGKATLTVDQSSSTAYMQLNSLTSEDSAVYYCARKWGQLGRGFFDVWGTGTTVTVSS
VL: QIVLSQSPAILSASPGEKVTMTCRASSSVSYMHWFQQKPGSSPKPWIYATSNLASGVPARFSGSGSGTSYSLTISRVEAEDAATYYCQQWSSSPLTFGAGTKLELKR
notes: also called TNF parent antibody; muTNFα Parent Antibody
B8 was tested, and the “TNFα Neutralization Assay EC50 nM (L929 cell viability, WST-1)” value (muTNFα) was 0.717 nM, the Kd [4] was 73 pM and the koff [4] was 0.00041 s⁻¹. The kon [4] was 5.6e+06 M⁻¹ s⁻¹, the Kd [5] was 73 pM and the koff [5] was 0.00041 s⁻¹.

B9: DVD1128 (bispecific antibody, human IgG1, kappa)
heavy: not shown
light: DVVMTQSPLSLPVTPGEPASISCRSSQSLVSSKGNTYLHWYLQKPGQSPQFLIYKVSNRFSGVPDRFSGSGSGTDFTLKISRVEAEDVGVYFCSQSTHFPRTFGGGTKVEIKRTVAAPQIVLSQSPAILSASPGEKVTMTCRASSSVSYMHWFQQKPGSSPKPWIYATSNLASGVPARFSGSGSGTSYSLTISRVEAEDAATYYCQQWSSSPLTFGAGTKLELKRTVAAPSVFIFPPSDEQLKSGTASVVCLLNNFYPREAKVQWKVDNALQSGNSQESVTEQDSKDSTYSLSSTLTLSKADYEKHKVYACEVTHQGLSSPVTKSFNRGEC
In the case of B9, the “N-terminal VD TWEAK Neutralization Assay EC50 nM (IL-8 in supernatant of A375 cells)” value (huTWEAK) is reported as 0.462 nM.
